Compound in data set [1]: COC(=O)[C@H](CC(C)C)NC(=O)[C@H](CCC(=O)O)NC(=O)[C@H](CCC(=O)O)NC(=O)CCCC1=C(C)C(=O)c2ccccc2C1=O
Put plainly: (§1) In vitro inhibitory effect Vitamin K dependent carboxylase of Phe-Leu-Glu-Glu-Leu in rat microsomal protein. The data set is classed as microsomes. The conditions noted are these: Microsome.

Compound in data set [2]: COC(=O)[C@H](CC(C)C)NC(=O)[C@H](CCC(=O)O)NC(=O)[C@H](CCC(=O)O)NC(=O)CCCC1=CC(=O)c2ccccc2C1=O
The data set is described as §1. In kind it is microsomes. The conditions noted are these: Microsome.

In ChEMBL document CHEMBL1122728, “Derivatives of 2-methyl-1,4-naphthoquinone as substrates and inhibitors of the vitamin K dependent carboxylase” (J Med Chem, 1984) one finds Km data, which are given here for one protein.

Values joined by “and” are separate entries in the source; they are usually repeats but may differ in a detail not shown here. Equal entries are not always repeated.

By Km is commonly meant the substrate concentration at which the rate is half of its maximum.

B1: Vitamin K-dependent gamma-carboxylase (Rattus norvegicus), O88496 (protein)
chain: MAVHRGSARAAPASDKVQKNKPAQTSGLEQGSRMARIFGFEWADLSSWQSVVTLLNRPTDPANLAVFRFLFAFLMLLDIPQERGLSSLDRKYLDGLDVCRFPLLDALRPLPLDWMYLVYTIMFLGALGMMLGLWYRLSCMLFLLPYWYVFLLDKTSWNNHSYLYGLLAFQLTFMDANHYWSVDGLLSAQKKNAHVPLWNYTVLRGQIFIVYFIAGVKKLDADWVEGYSMEHLSRHWLFSPFKLVLSEELTSLLVVHWCGLLLDLSAGFLLFFDASRPIGLVFVSYFHCMNSQLFSIGMFPYVMLASSPLFCSAEWPRKLVARCPKRLQELLPAKAAPRPSASCVYKRARAKAGQKPGLRHHLGTVFTLLYLLEQLFLPYSHFLTQGYNNWTNGLYGYSWDMMVHSRSHQHVKITYRDGLTGELGYLNPGVFTQSRRWKDHADMLKQYATCLSLLLPKYNVTEPQIYFDIWVSINDRFQQRLFDPRVDIVQAVWSPFRRTPWVQPLLMDLSPWRTKLQDIKSSLDNHTEVVFIADFPGLHLENFVSEDLGNTSIQLLQGEVTVELVAEQKNQTLREGEKMQLPAGEYHKVYTVSSSPSCYMYIYVNTTEVALEQDLAYLQELKEKVENGSETGPLPPELQPLLEGEVKGGPEPTPLVQTFLRRQRKLQEIERRRNSPLHERFLRFVLRKLYVFRRSFLMTRISLRNLLFGRPSLEQLAQEVTYANLRPFEPVDESSASNTDSSDPHPSEPDSEHVHSEL
In the case of B1, the Michaelis constant (Km) in data set [1] is 44 µM and < 50 µM; in data set [2] it was 85 µM.
